# Measurements reported in publication PMC12447488, “Targeting Both Monomer and Oligomer with Fibrinogen Efficiently Suppresses Amyloid Fibril Formation and Cell Toxicity of Amyloid β 1‑42” (ACS Chemical Neuroscience, 2025).
# B1: bovine fibrinogen (complex)
# chain 1: EDGSDPPSGDFLTEGGGVRGPRLVERQQSACKETGWPFCSDEDWNTKCPSGCRMKGLIDEVDQDFTSRINKLRDSLFNYQKNSKDSNTLTKNIVELMRGDFAKANNNDNTFKQISEDLRSRIEILRRKVIEQVQRIKVLQKNVRDQLVDMKRLEVDIDIKIRSCKGSCSRALEHKVDLEDYKNQQKQLEQVIAINLLPSRDIQYLPLIKMSTITGPVPREFKSQLQEAPLEWKALLEMQQTKMVLETFGGDGHARGDSVSQGTGLAPGSPRKPGTSSIGNVNPGSYGPGSSGTWNPGRPEPGSAGTWNPGRPEPGSAGTWNPGRPEPGSAGTWNPGRPEPGSAGTWNPGRPEPGSAGTWNTGSSGSSSFRPDSSGHGNIRPSSPDWGTFREEGSVSSGTKQEFHTGKLVTTKGDKELLIDNEKVTSGHTTTTRRSCSKVITKTVTNADGRTETTKEVVKSEDGSDCGDADFDWHHTFPSRGNLDDFFHRDKDDFFTRSSHEFDGRTGLAPEFAALGESGSSSSKTSTHSKQFVSSSTTVNRGGSAIESKHFKMEDEAESLEDLGFKGAHGTQKGHTKARPARGIHTSPLGEPSLTP
# chain 2: QFPTDYDEGQDDRPKVGLGARGHRPYDKKKEEAPSLRPVPPPISGGGYRARPATATVGQKKVERKPPDADGCLHADPDLGVLCPTGCKLQDTLVRQERPIRKSIEDLRNTVDSVSRTSSSTFQYITLLKNMWKGRQNQVQDNENVVNEYSSHLEKHQLYIDETVKNNIPTKLRVLRSILENLRSKIQKLESDVSTQMEYCRTPCTVTCNIPVVSGKECEKIIRNEGETSEMYLIQPEDSSKPYRVYCDMKTEKGGWTVIQNRQDGSVDFGRKWDPYKQGFGNIATNAEGKKYCGVPGEYWLGNDRISQLTNMGPTKLLIEMEDWKGDKVTALYEGFTVQNEANKYQLSVSKYKGTAGNALIEGASQLVGENRTMTIHNSMFFSTYDRDNDGWKTTDPRKQCSKEDGGGWWYNRCHAANPNGRYYWGGAYTWDMAKHGTDDGVVWMNWQGSWYSMKKMSMKIRPYFPEQ
# chain 3: YVATRDNCCILDERFGSYCPTTCGIADFLNNYQTSVDKDLRTLEGILYQVENKTSEARELVKAIQISYNPDQPSKPNNIESATKNSKSMMEEIMKYETLISTHESTIRFLQEVYNSNSQKIVNLRDKVVQLEANCQEPCQDTVKIHDVTGRDCQDVANKGAKESGLYFIRPLKAKQFLVYCEIDGSGNGWTVFQKRLDGSLDFKKNWIQYKEGFGHLSPTGTGNTEFWLGNEKIHLISTQSSIPYVLRIQLEDWNGRTSTADYASFKVTGENDKYRLTYAYFIGGDAGDAFDGYDFGDDSSDKFFTSHNGMQFSTWDSDNDKYDGNCAEQVGIGWWMNKCHAGHLNGVYYQGGTYSKTSTPNGYDNGIIWATWKSRWYSMKKTTMKIIPLNRLAIGEGQQHQLGGAKQVGVEHHVEIEYD
# notes: fibrinogen Aα chain, bovine; fibrinogen Bβ chain, bovine; fibrinogen γ chain, bovine; About 340 kDa, six polypeptide chains (two Aα, two Bβ, two γ); also called bFg; source: bought: Wako Pure Chemical Industries (from plasma), purified via size-exclusion chromatography (monomer fractions); copies: 2 + 2 + 2
# B2: human fibrinogen (complex)
# chain 1: ADSGEGDFLAEGGGVRGPRVVERHQSACKDSDWPFCSDEDWNYKCPSGCRMKGLIDEVNQDFTNRINKLKNSLFEYQKNNKDSHSLTTNIMEILRGDFSSANNRDNTYNRVSEDLRSRIEVLKRKVIEKVQHIQLLQKNVRAQLVDMKRLEVDIDIKIRSCRGSCSRALAREVDLKDYEDQQKQLEQVIAKDLLPSRDRQHLPLIKMKPVPDLVPGNFKSQLQKVPPEWKALTDMPQMRMELERPGGNEITRGGSTSYGTGSETESPRNPSSAGSWNSGSSGPGSTGNRNPGSSGTGGTATWKPGSSGPGSTGSWNSGSSGTGSTGNQNPGSPRPGSTGTWNPGSSERGSAGHWTSESSVSGSTGQWHSESGSFRPDSPGSGNARPNNPDWGTFEEVSGNVSPGTRREYHTEKLVTSKGDKELRTGKEKVTSGSTTTTRRSCSKTVTKTVIGPDGHKEVTKEVVTSEDGSDCPEAMDLGTLSGIGTLDGFRHRHPDEAAFFDTASTGKTFPGFFSPMLGEFVSETESRGSESGIFTNTKESSSHHPGIAEFPSRGKSSSYSKQFTSSTSYNRGDSTFESKSYKMADEAGSEADHEGTHSTKRGHAKSRPV
# chain 2: QGVNDNEEGFFSARGHRPLDKKREEAPSLRPAPPPISGGGYRARPAKAAATQKKVERKAPDAGGCLHADPDLGVLCPTGCQLQEALLQQERPIRNSVDELNNNVEAVSQTSSSSFQYMYLLKDLWQKRQKQVKDNENVVNEYSSELEKHQLYIDETVNSNIPTNLRVLRSILENLRSKIQKLESDVSAQMEYCRTPCTVSCNIPVVSGKECEEIIRKGGETSEMYLIQPDSSVKPYRVYCDMNTENGGWTVIQNRQDGSVDFGRKWDPYKQGFGNVATNTDGKNYCGLPGEYWLGNDKISQLTRMGPTELLIEMEDWKGDKVKAHYGGFTVQNEANKYQISVNKYRGTAGNALMDGASQLMGENRTMTIHNGMFFSTYDRDNDGWLTSDPRKQCSKEDGGGWWYNRCHAANPNGRYYWGGQYTWDMAKHGTDDGVVWMNWKGSWYSMRKMSMKIRPFFPQQ
# chain 3: YVATRDNCCILDERFGSYCPTTCGIADFLSTYQTKVDKDLQSLEDILHQVENKTSEVKQLIKAIQLTYNPDESSKPNMIDAATLKSRKMLEEIMKYEASILTHDSSIRYLQEIYNSNNQKIVNLKEKVAQLEAQCQEPCKDTVQIHDITGKDCQDIANKGAKQSGLYFIKPLKANQQFLVYCEIDGSGNGWTVFQKRLDGSVDFKKNWIQYKEGFGHLSPTGTTEFWLGNEKIHLISTQSAIPYALRVELEDWNGRTSTADYAMFKVGPEADKYRLTYAYFAGGDAGDAFDGFDFGDDPSDKFFTSHNGMQFSTWDNDNDKFEGNCAEQDGSGWWMNKCHAGHLNGVYYQGGTYSKASTPNGYDNGIIWATWKTRWYSMKKTTMKIIPFNRLTIGEGQQHHLGGAKQAGDV
# modifications: Natural plasma hexamer (AαBβγ)2, about 340 kDa, disulfide-linked and N-glycosylated, fibrinopeptides A and B retained. Aα is the 610-residue plasma form (the paper gives αC as 221-610); mature 1-610 =
# Assays:
# Details in all cases: both partners purified
# Amyloid β 1-42 oligomer [1] = target: T1, Amyloid β 1-42 oligomer (UniProt P05067 672-713); experiment: far-Western, overlay or dot blot + AUC; number of binding sites on bFg worked out from the concentrations of Aβ42 species (18 μM monomer, about 0.17 μM oligomer) and of bFg at which the interaction was seen
# T1 construct: numbers count on: the Aβ peptide; granular particles of 5.0 ± 0.9 nm height in AFM; read out with antibody A11 in the dot blot; also called Aβ42 oligomer; Aβ oligomers; source: formed from bought Aβ42 (Peptide Institute, Inc.) at 20 μM during 1 h at 37 °C in 50 mM phosphate/200 mM NaCl (pH 7.4); copies: 12
# Amyloid β 1-42 monomer [2] = target: T2, Amyloid β 1-42 monomer (UniProt P05067 672-713); experiment: as above
# T2 construct: printed molecular weight 4512 g/mol; numbers count on: the Aβ peptide; read out with antibody 4G8 in the dot blot; also called Aβ42; Aβ42 monomer; source: bought: Peptide Institute, Inc. (Japan), used without further purification
# Amyloid β 1-42 oligomer [3] = target: T1, Amyloid β 1-42 oligomer; experiment: far-Western, overlay or dot blot; Aβ42 20 μM incubated with bFg or hFg (0.03, 0.3, 3 μM) for 1 h at 37 °C in 50 mM phosphate/200 mM NaCl pH 7.4, then dotted; loss of the spot intensity of antibody 4G8 (monomer) or A11 (oligomer) taken as binding by steric hindrance; apparent Kd from fit or simulation with eq S6
# Amyloid β 1-42 monomer [4] = target: T2, Amyloid β 1-42 monomer; experiment: as above
binder,measurement,setting,value
B1,stoichiometry N,Amyloid β 1-42 oligomer [1],≥ 2
same,stoichiometry N,Amyloid β 1-42 monomer [2],≤ 6
same,Kd,Amyloid β 1-42 oligomer [3],200 ± 50 nM
same,Kd,Amyloid β 1-42 monomer [4],~1000 nM
B2,Kd,Amyloid β 1-42 oligomer [3],1400 ± 200 nM
same,Kd,Amyloid β 1-42 monomer [4],≥ 100000 nM
